In PMC3517063 (Proteomics, 2012):

Biological target: the molecule itself
Experiment: cross-linking

B1: proteasomal 20S core particle subunit α2 with C-terminal His6 tag (α2-His6) (natural protein, Haloferax volcanii, UniProt Q9V2V5 1-249, looked up)
chain: MNRNDKQAYDRGTSLFSPDGRIYQVEYAREAVKRGAPVLGVRTADGVVLAALRSTPSELMEAESIEKLHKLDDALGAATAGHVADARKLVDFARTTAQREHLRYGEPIGVETLTKTITDNIQESTQSGGTRPYGASLLIGGVENGSGRLFATDPSGTPQEWKAVAIGGHREDVQAALEDGYAEDLSLEDGLALAVEALVAADEEIESDELNLVTVSEAGYEIVDEETIAELFADATADDESDETDEREE
- binding result: binds

B2: proteasomal 20S core particle subunit α1 with His6 tag (α1-His6) (natural protein, Haloferax volcanii, UniProt Q9V2V6 1-252, looked up)
chain: MQGQAQQQAYDRGITIFSPDGRLYQVEYAREAVKRGTASIGVRTPEGVVLAADKRSRSPLMEPTSVEKIHKADDHIGIASAGHVADARQLIDFARRQSQVNRLRYGEPIGIETLTKEVTDHIQQYTQVGGARPFGVALLIGGVENGTPRLYETDPSGTPYEWKAVSIGADRGDHQEHLEENFRDDLTLDEGIELALEAIASTSDEGTAPDGVDVATVSAETERFVELSNDEIESYLEANDLLATEDDEQTEE
- binding result: binds
